Measurements taken from patent publication US20230357364A1.

Target: SARS-CoV-2 spike D614G (pseudovirus) (SARS-CoV-2) (UniProt P0DTC2)
Assay: cell-based or functional assay

Substance	PSV in HeLa-ACE2 cells IC50 [µg/mL]
REGN10933 (antibody)	0.009
REGN10987 (antibody)	0.019
